Measured values: patent US20230120736A1, “ANTI-CD98 ANTIBODIES AND ANTIBODY DRUG CONJUGATES” (AbbVie Inc., priority 2016, published 2023)
Marks after values point to notes of the source that are not given here.

Legend:
[1] = tested on: NCI-H146 (human small cell lung cancer) xenograft; test: NCI-H146 xenograft tumor growth inhibition; type: in vivo, mouse; conditions: SCID-bg mice
Procedure: The in vivo efficacy of anti-CD98 hybridoma mAb conjugates were tested using Ab3-CZ and Ab5-CZ as examples in NCI-H146 (human small cell lung cancer) xenograft model. […] The cells were cultured as monolayers in RPMI-1640 culture media (Invitrogen, Carlsbad, Calif.) that was supplemented with 10% Fetal Bovine Serum (FBS, Hyclone, Logan, Utah). To generate xenografts, 5×10^6 (NCI-H146) viable cells were inoculated subcutaneously into the right flank of immune deficient female SCID-bg mice (Charles River Laboratories, Wilmington, Mass.). The injection volume was 0.2 mL and composed of Matrigel (BD, Franklin Lakes, N.J.). Tumors were size matched at approximately 212 mm^3. Antibodies and conjugates were formulated in phosphate buffered saline, pH 7.2 and injected intraperitoneally. […] Therapy began within 24 hours after size matching of the tumors. Mice weighed approximately 21 g at the onset of therapy. Tumor volume was estimated two to three times weekly. Measurements of the length (L) and width (W) of the tumor were taken via electronic caliper and the volume was calculated according to the following equation: V=L×W^2/2. Mice were euthanized when tumor volume reached 3,000 mm^3 or skin ulcerations occurred. Eight mice were housed per cage. Food and water were available ad libitum. Mice were acclimated to the animal facilities for a period of at least one week prior to commencement of experiments. Animals were tested in the light phase of a 12-hour light: 12-hour dark schedule (lights on at 06:00 hours). Anti-CD98 conjugates (10 mg/kg) were administered as a single dose (QDx1) intraperitoneally. A human IgG control antibody (MSL109, a humanized IgG1 antibody that binds to cytomegalovirus (CMV) glycoprotein H) was used as a negative control agent.
(§1) To refer to efficacy of therapeutic agents, parameters of amplitude (TGImax), durability (TGD) and response frequency (CR, PR, OR) of therapeutic response are used. The efficacy of inhibition of NCI-H146 xenografts growth with CD98-targeted ADCs is illustrated by Table 6, below. In the tables, to refer to efficacy, parameters of amplitude (TGImax) and durability (TGD) of therapeutic response are used. TGImax is the maximum tumor growth inhibition during the experiment. Tumor growth inhibition is calculated by 100*(1−Tv/Cv) where Tv and Cv are the mean tumor volumes of the treated and control groups, respectively. TGD or tumor growth delay is the extended time of a treated tumor needed to reach a volume of 1 cm^3 relative to the control group. TGD is calculated by 100*(Tt/Ct−1) where Tt and Ct are the median time periods to reach 1 cm^3 of the treated and control groups, respectively. Distribution of the response amplitude in a specific group is given by the frequency of complete responders (CR), partial responders (PR), and overall responders (OR). CR is the percentage of mice within a group with a tumor burden of 25 mm^3 for at least three measurements. PR is the percentage of mice within a group with a tumor burden larger than 25 mm^3 but less than one-half of the volume at onset of treatment for at least three measurements. OR is the sum of CR and PR.
The in vivo anti-tumor efficacy of selected humanized anti-CD98 mAb conjugates were tested in NCI-H146 (human small cell lung cancer) xenograft model, as described in Example 6. Tumor growth inhibition was reported as TGImax in Table 28.

[2] = Size exclusion chromatography, % aggregate fraction of ADC; type: physicochemical; conditions: hybridoma mAb conjugated with synthon CZ, Method A
Procedure: Size exclusion chromatography was performed using a Shodex KW802.5 column in 0.2M potassium phosphate pH 6.2 with 0.25 mM potassium chloride and 15% IPA at a flow rate of 0.75 ml/min. The peak area absorbance at 280 nm was determined for each of the high molecular weight and monomeric eluents by integration of the area under the curve. The % aggregate fraction of the conjugate sample was determined by dividing the peak area absorbance at 280 nm for the high molecular weight eluent by the sum of the peak area absorbances at […] of the high molecular weight and monomeric eluents multiplied by 100%.

[3] = tested on: HCC38 breast cancer cell line; test: Growth inhibition assay (CellTiter-Glo); conditions: read-out: ADC potency, IC50, HCC38, 4-days treatment, 3000 cells per well
[4] = tested on: Jurkat acute T cell leukemia cell line; test: Growth inhibition assay (CellTiter-Glo); conditions: read-out: ADC potency, IC50, Jurkat, 5-days treatment, 3000 cells per well
[5] = tested on: EBC-1 (human lung squamous cell carcinoma) xenograft; test: EBC-1 xenograft tumor growth inhibition; type: in vivo, mouse; conditions: SCID-bg mice; for Growth Inhibition TGImax / Response Frequency CR / Response Frequency PR / Tumor growth delay (TGD): 10 mg/kg IP QDx1; for Response Frequency OR: 10 mg/kg IP QDx1, sum of CR and PR
Procedure: as §1, with “The efficacy of inhibition of NCI-H146 xenografts growth with CD98-targeted ADCs is illustrated by Table 6, below.” left out
EBC-1 was obtained from the Japanese Collection of Research Bioresources Cell Bank (JCRB, Osaka, Japan) and were cultured using MEM culture media with 10% FBS. To generate xenografts, 5×10^6 EBC-1 viable cells were inoculated subcutaneously into the right flank of immune deficient female SCID-bg mice (Charles River Laboratories, Wilmington, Mass.). The injection volume was 0.2 mL and the inoculum was composed of 1:1 mixture of S-MEM and Matrigel. Tumors were size matched at approximately 200 mm^3. Antibodies and conjugates were formulated in phosphate buffered saline, pH 7.2 and injected intraperitoneally. […] Therapy began within 24 hours after size matching of the tumors. Mice weighed approximately 21-22 g at the onset of therapy. Tumor volume was estimated two to three times weekly. Measurements of the length (L) and width (W) of the tumor were taken via electronic caliper and the volume was calculated according to the following equation: V=L×W^2/2. Mice were euthanized when tumor volume reached 3,000 mm^3 or skin ulcerations occurred. Eight mice were housed per cage. Food and water were available ad libitum. Mice were acclimated to the animal facilities for a period of at least one week prior to commencement of experiments. Animals were tested in the light phase of a 12-hour light: 12-hour dark schedule (lights on at 06:00 hours). Anti-CD98 conjugates (10 mg/kg) were administered as a single dose (QDx1) intraperitoneally. A human IgG control antibody (AB095, a human IgG1 antibody recognizing tetanus toxoid See Larrick et al., 1992, Immunological Reviews 69-85) was used as a negative control agent.
To refer to efficacy of therapeutic agents, parameters of amplitude (TGImax), durability (TGD) and response frequency (CR, PR, OR) of therapeutic response are used as described in the Example 6.

| Molecule | % Aggregates by SEC [2] [%] | IC50 [3] [nM] | IC50 [4] [nM] | also measured |
| --- | --- | --- | --- | --- |
| MSL109: "a humanized IgG1 antibody that binds to cytomegalovirus (CMV) glycoprotein H", "negative control agent" [reference compound] | – | – | – | Growth Inhibition TGD ([1]; 10 mg/kg IP QDx1): 0%; Growth Inhibition TGImax ([1]; 10 mg/kg IP QDx1): 0%; Response Frequency CR ([1]; 10 mg/kg IP QDx1): 0%; Response Frequency PR ([1]; 10 mg/kg IP QDx1): 0%; Response Frequency OR ([1]; 10 mg/kg IP QDx1, sum of CR and PR): 0% |
| Ab13-CZ (conjugate) VH: QVQLKESGPGLVQPSQTLSLTCTVSGFSLSSYGVIWVRQPPGKGLEWMGIIWANGNTNYNSALKSRLSISRDTSKSQVYLKMNSLQTEDTATYYCARHYYDGTHYYGYFDYWGQGVMVTVSS VL: DTVMTQTPSSQAVSAGEKVTMSCKSSQSLLYSENKKKYLAWYQQKPGQSPKLLIYWASTRESGVPDRFIGSGSGTDFTLTISSVQAEDLAVYYCQQYYNFPYTFGAGTKLELK | 4.7 | 0.787 | 0.149 | – |
| Ab14-CZ (conjugate) VH: EVKLQQSGDELVRPGASVKISCKASGYTFTSYSMHWVKERPGQGLEWIGAIFPIIGTTEYNQKFKGKATLTADKSSNTANMELSRLTSEDSAVYYCARVYLSYFDYWGQGVMVTVSS VL: DIQMTQSPSFLSASVGDRVTINCKASQNINKYLDWYQRKHGEAPKLLIYNTNNLQTGIPSRFSGSGSGTDYTLTISSLQPEDVATYFCLQHSSRYTFGAGTKLELK | 8.8 | 0.798 | 0.063 | – |
| Ab10-CZ (conjugate) VH: EVQLVESGGGLVQPGRSLKLSCAASGFTFSDYAMAWVRQAPKKSLEWVATIIYDGRGTYCRDSVKGRFTISRDNAKSTLYLQMDSLRSEDTATYYCARQGDGTYHYWGYFDYWGQGVMVTVSS VL: DIVMTQSPSSLAVSAGETVTINCKSSQSLLSSGNQKNYLAWYQQKPGQSPKLLIYWASTRQSGVPDRFIGSGSGTDFTLTISSVQAEDLAIYYCQQYYDTPYTFGAGTKVDLK | 4.7 | 1.16 | 0.148 | – |
| ChAb12-CZ (conjugate) VH: EVQLVESGGGLVQPGRSLKLSCAASGFTFSDYAMAWVRQAPKKGLEWVASIIYDGRGTYYRDSVKGRFTISRDNAKSTLYLQMDSLRSEDTATYYCARQGDGTYYYWGSFDYWGQGVMVTVSS VL: DIVMTQSPSSLAVSAGETVTINCKSSQSLLSSGNQKNYLAWYQQKPGQSPKLLIYWASTRQSGVPDRFIGSGSGTDFTLTISSVQAEDLAIYHCQQYYDTPYTFGAGTKLELK | – | – | – | Growth Inhibition TGImax [5]: 76* %; Response Frequency CR [5]: 0%; Response Frequency PR [5]: 25%; Tumor growth delay (TGD) [5]: 74* %; Response Frequency OR [5]: 25% |
| Ab15-CZ (conjugate) VH: EVQLVESGGGLVQPGRSLKLSCAASGFTFSDYTMAWVRQAPKKGLEWVATIIYDGRGTYYRDSVKGRFTISRDNAKSTLYLQMDSLRSEDTATYYCARQSDGTYYYWGYFDYWGQGVMVTVSS VL: DIVMTQSPSSLAVSAGETVTINCKSSQSLLFSGNQKNYLAWYQQKPGQSPKLLIYWASTRQSGVPDRFIGSGSGTDFTLTIRSVQAEDLAIYYCQQYYDSPYTFGAGTKLELK | 5.7 | 1.06 | 0.076 | – |
| ChAb15-CZ (conjugate) VH: EVQLVESGGGLVQPGRSLKLSCAASGFTFSDYTMAWVRQAPKKGLEWVATIIYDGRGTYYRDSVKGRFTISRDNAKSTLYLQMDSLRSEDTATYYCARQSDGTYYYWGYFDYWGQGVMVTVSS VL: DIVMTQSPSSLAVSAGETVTINCKSSQSLLFSGNQKNYLAWYQQKPGQSPKLLIYWASTRQSGVPDRFIGSGSGTDFTLTIRSVQAEDLAIYYCQQYYDSPYTFGAGTKLELK | – | – | – | Growth Inhibition TGImax [5]: 70* %; Response Frequency CR [5]: 0%; Response Frequency PR [5]: 0%; Tumor growth delay (TGD) [5]: 74* %; Response Frequency OR [5]: 0% |
| Ab12-CZ (conjugate) VH: EVQLVESGGGLVQPGRSLKLSCAASGFTFSDYAMAWVRQAPKKGLEWVASIIYDGRGTYYRDSVKGRFTISRDNAKSTLYLQMDSLRSEDTATYYCARQGDGTYYYWGSFDYWGQGVMVTVSS VL: DIVMTQSPSSLAVSAGETVTINCKSSQSLLSSGNQKNYLAWYQQKPGQSPKLLIYWASTRQSGVPDRFIGSGSGTDFTLTISSVQAEDLAIYHCQQYYDTPYTFGAGTKLELK | 2.9 | 0.685 | 0.094 | – |
| Ab11-CZ (conjugate) VH: EVQLVESGGGLVQPGRSLKLSCAASGFTFSDYAMAWVRQAPKKGLEWVAGIIYDGRGTYYRDSVKGRFTISRDNAKSTLYLQMDSLRSEDTATYYCARQGDGTYYYWGYFDYWGQGVMVTVSS VL: DIVMTQSPSSLAVSAGETVTINCRSSQSLLSSGNQKNYLAWYQQKPGQSPKLLIYWASTRQSGVPDRFIGSGSGTDFTLTISSVQAEDLAIYYCQQYYDTPYTFGAGTKLELK | 4.2 | 1.14 | 0.311 | – |
